Experimental data as given in patent US20180127480A1.

What was measured:
[1] = molecular target: biotinylated human SIRPα allele 2 domain 1 (a2d1) (human) (UniProt P78324); assay: SPR, Biacore T100, biotinylated SIRPα on SA chip, 25 C, 1:1 Langmuir model
[2] = molecular target: biotinylated human SIRPα allele 1 domain 1 (a1d1) (human) (UniProt P78324); assay: as above
Sequence of biotinylated human SIRPα allele 1 domain 1 (a1d1) (human) (P78324 other isoform, or with tags, fused parts or gaps): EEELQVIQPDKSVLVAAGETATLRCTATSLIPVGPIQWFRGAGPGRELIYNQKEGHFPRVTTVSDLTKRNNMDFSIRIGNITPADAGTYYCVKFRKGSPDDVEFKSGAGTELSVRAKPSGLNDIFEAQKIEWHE

Sequence of biotinylated human SIRPα allele 2 domain 1 (a2d1) (human) (P78324 other isoform, or with tags, fused parts or gaps): as above

Kd [1]: 1.1 nM | Kd [2]: 0.296 nM
B1: high affinity CD47 variant N363 C15G (designed binder)
chain: WQLPLLFNKTKSVEFTFGNDTVVIPCFVTNMEAQNTTEVYVKWKFKGRDIYTFDGDKNKSTVPTDFSSAKIEVSQLLKGDASLKMDKSDAVSHTGNYTCEVTELTREGETIIELKYRVVSHHHHHHHH
